For two substances, band intensity of biotinylated Rab6a (FIG. 3) compared to biotinylated Rab27a (FIG. 2), positive controls spiked with fish REP1, biotinylated substrate with Rab6a compared to Rab27a (in vitro prenylation, WB; untransduced 293 lysate, endogenous REP1, FIG. 9) and strength of the WB signal for biotinylated Rab6a (FIG. 3) compared to biotinylated Rab27a (FIG. 2), AAV-REP1 transduced cells results are on record in patent US20190017096A1.

The experiment addresses Rab6a (Ras-related protein Rab-6A) (Homo sapiens (Human)) (UniProt P20340). The experiment in a line: cell-based or functional assay.
UniProt P20340, sequence (P20340 whole entry): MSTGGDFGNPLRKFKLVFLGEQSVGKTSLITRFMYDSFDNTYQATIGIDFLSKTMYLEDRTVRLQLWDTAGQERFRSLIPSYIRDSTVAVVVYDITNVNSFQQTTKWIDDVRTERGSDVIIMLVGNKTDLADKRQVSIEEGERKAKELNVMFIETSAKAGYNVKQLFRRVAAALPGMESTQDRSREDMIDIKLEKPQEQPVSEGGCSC

On to fish REP1, for which the band intensity of biotinylated Rab6a (FIG. 3) compared to biotinylated Rab27a (FIG. 2), positive controls spiked with fish REP1 is 100 fold.
With “human Rab escort protein 1 (REP1) (from UniProt P24386 1-653)”, the biotinylated substrate with Rab6a compared to Rab27a (in vitro prenylation, WB; untransduced 293 lysate, endogenous REP1, FIG. 9) was determined as 2.5 fold and the strength of the WB signal for biotinylated Rab6a (FIG. 3) compared to biotinylated Rab27a (FIG. 2), AAV-REP1 transduced cells came to 10 fold.
